In patent publication US20190352365:

What was measured:
[1] = target: T1, CBD-intein-S-TEV site-liraglutide fusion protein
T1 chain: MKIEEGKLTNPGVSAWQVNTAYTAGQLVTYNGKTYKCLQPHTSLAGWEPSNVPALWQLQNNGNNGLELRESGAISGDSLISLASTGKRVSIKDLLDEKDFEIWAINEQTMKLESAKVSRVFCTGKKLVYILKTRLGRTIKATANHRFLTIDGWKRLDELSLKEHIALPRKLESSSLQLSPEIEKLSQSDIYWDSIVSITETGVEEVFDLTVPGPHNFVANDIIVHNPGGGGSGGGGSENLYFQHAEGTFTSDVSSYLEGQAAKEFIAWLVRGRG

[2] = target: T2, CBD-intein-Spacer(S)-TEV site-teriparatide fusion protein
T2 chain: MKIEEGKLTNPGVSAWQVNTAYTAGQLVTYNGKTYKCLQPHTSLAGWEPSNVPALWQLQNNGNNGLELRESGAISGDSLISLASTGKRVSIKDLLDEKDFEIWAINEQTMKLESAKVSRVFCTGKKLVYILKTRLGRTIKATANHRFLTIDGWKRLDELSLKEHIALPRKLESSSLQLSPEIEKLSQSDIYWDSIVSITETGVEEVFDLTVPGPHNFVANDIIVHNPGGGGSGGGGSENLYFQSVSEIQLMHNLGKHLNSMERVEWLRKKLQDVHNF

B1: TEV protease (protein)
chain: GESLFKGPRDYNPISSTICHLTNESDGHTTSLYGIGFGPFIITNKHLFRRNNGTLLVQSLHGVFKVKNTTTLQQHLIDGRDMIIIRMPKDFPPFPQKLKFREPQREERICLVTTNFQTKSMSSMVSDTSCTFPSSDGIFWKHWIQTKDGQCGSPLVSTRDGFIVGIHSASNFTNTNNYFTSVPKNFMELLTNQEAQQWVSGWRLNADSVLWGGHKVFMSKPEEPFQPVKEATQLMNELVYSQ
- TEV protease-mediated cleavage of the fusion protein (SDS-PAGE, pH 8.0) [1]: cleavage by the TEV protease resulted in the release of liraglutide
- TEV protease-mediated cleavage of the fusion protein (SDS-PAGE and western blot, pH 8.0 and pH 7.0) [2]: cleavage by the TEV protease resulted in the release of teriparitide
